Results: article PMC10754441

Biological target: T1, TipR (Caulobacter crescentus NA1000) (UniProt A0A0H3C6G9)
T1 sequence: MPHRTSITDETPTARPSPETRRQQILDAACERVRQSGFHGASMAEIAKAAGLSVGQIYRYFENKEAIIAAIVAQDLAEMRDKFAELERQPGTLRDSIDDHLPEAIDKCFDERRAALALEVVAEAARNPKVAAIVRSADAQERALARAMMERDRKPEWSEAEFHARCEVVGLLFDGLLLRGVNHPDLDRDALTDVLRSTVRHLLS
Assay: EMSA
Settings: EMSA: 40 mM Tris-HCl pH 7.6, 60 mM KCl, 0.1% glycerol, 240 ug calf DNA, 800 ug BSA, 100-200 ng probe, 30 min room temperature; 4% native TBE acrylamide gel

With “GGCGGCGAGTCCCACGGTCGTCGCCGCGACCGAGCGTTGGAAATGCATGTTTGACCCCGGGAGGCGAGGGTCGCGCGGGCTCTTACCCTTGACGCGGCCACTATGATGAACGATTTGAGAATGAACGTTCATTCTCATGTGGGCTGGACATAAGAGCTGGAGTGTCGCAAGTCAACCTCCGGCGCCGCGCGTTTGGCTGACCTAACGGAAATGTAATGCCGCACAGGACTTC (double strand) [PacrA]” the binding was “binds”.
